Measured values as given in the RNAGym collection of RNA variant scans (doi:10.1073/pnas.2313332121).

B1: TPR t1 (parent)
chain: GACCAAUCUGCCCUCAGAGCUCGAGAACAUCUUCGGAUGCAGAGGAGGCAGGCUUCGGUGGCGCGAUAGCGCCAACGUCCUCAACCUCCAAUGCAUCCCACCACAUGAUGAUGCCUGAAGAGCCUUGGUUUUUUG

Variants of: B1
Test: polymerase ribozyme fitness, log enrichment relative to wild type (log ratio); higher = more active; in vitro selection for triplet polymerase activity
Summary of the method: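 Input and output libraries were sequenced on Illumina after a single in vitro selection round, run in triplicate on PCR-built, transcribed mutant libraries of each subunit of a heterodimeric triplet polymerase ribozyme. Selection annealed libraries to a biotinylated primer, the partner subunit and triplets, incubated them frozen at −7 °C, then gel-excised extended constructs for streptavidin-bead capture and RT-PCR. Genotypes with ≥10 input reads and ≥1 read per output were kept. Fitness is the logarithm, taken in base 2, of genotype enrichment divided by wild-type enrichment, using inverse-variance-weighted replicate averages.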

| Variant | polymerase ribozyme fitness (log ratio) |
| --- | --- |
| C11A C22G | -4.15 |
| G10A G45A A95C C102A | -2.76 |
| C11G C28G A105U G110U | -6.33 |
| C11A A18U U21A C56U | -3.04 |
| C11G A68U | -4.49 |
| G10U C40G | -0.556 |
| C11G G42C A95U | -1.3 |
| G10U C34G C102U | -6.42 |
| G10A C11G C70G | -2.13 |
| G10U C20U U32A A84U C104A | -3.8 |
| C11G G42C A68U C72A A91U G113C | -8.47 |
| G10U C22G A50C A118G | -5.56 |
| C11A C12G C20U U55A C56U G93C | -4.53 |
| G10A G71A C80A | -4.78 |
| C11A C20U C34A C53A C94G A121U | -3.61 |
| G10C A103U C123U | -5.06 |
| C11A C40U C49U C56A C123G U129A | -3.2 |
| C11G A37C A46U G120C G128C | -0.871 |
| C11G A37U G42U | -0.864 |
| C11G C97A C102U | -4.77 |
| C11G C40A G122A G127U | -1.57 |
| C11G C40A C76G C86U C114U U125C | -5.11 |
| G10C C15A | -2.21 |
| C11A G51C | -4.99 |

| Variant | polymerase ribozyme fitness (log ratio) |
| --- | --- |
| G10A G44A G47A G61C | -3.22 |
| G10A G63U C86U G120A | 0.0567 |
| G10A G107A C123U C124A | -4.28 |
| G10U U106A | 0.263 |
| C11G C53G U96G A105C U112G | -5.28 |
| G10A U59C A66C A68G U106G A121U | -4.4 |
| C11G A27U G47C A83U | -3.57 |
| G10A C12U U112A | 1.73 |
| G10A C56G G117A | -3.95 |
| G10C U87A | -0.978 |
| G10A G93U C102A | -3.7 |
| G10U C53A G77C U78A G107C A121U | -4.29 |
| G10C G45U G47U C73A G117A A119U | -5.46 |
| G10A U92A | -2.86 |
| G10A C88A A90G G122U U133G | 0.185 |
| G10A U32C C72G U87A U131A | -2.99 |
| G10U C15U C56A C72G G120A | -0.935 |
| G10U C56A U112A | 0.0795 |
| C11A C12U G71U A84C | -1.73 |
| G10U G39A C98U | -1.4 |
| G10A C13U U38G C56U C82G | -1.27 |
| G10U C11G A29C C53A A74U | -3.94 |
| G10C A26G G71A | -2.61 |
| G10A U129A | -1.14 |

| Variant | polymerase ribozyme fitness (log ratio) |
| --- | --- |
| C11G G17U G61A A105G | -6.42 |
| G10U A37U | -0.888 |
| C11G G19A G47C G48A | -3.86 |
| C11A U14A A18U U55C | -4.98 |
| C11A C31U C40U G47C C62U G107A | -4.34 |
| C11G C76A G77A G93U | -1.15 |
| G10U C20A A84U U131C | -2.84 |
| G10U A16C C49U A118G C124A | -2.5 |
| G10U G110A | -1.35 |
| C11A C53G G60C G77C C86G | -4.21 |
| C11G C53U G61A G107A | -5.9 |
| G10A C12U G19U C85U C123U | -1.68 |
| G10A C11U C28A | -4.2 |
| G10C G69A | -4.78 |
| C11A G69U C79U C102U | -1.74 |
| C11G C15G G113U | -4.66 |
| C11A A46C G61U C94A | -2.34 |
| C11A A105C | -3.07 |
| G10C G71A G113C | -4.81 |
| G10C G42U G48A | -2.39 |
| C11G A18U G42C C89A | -0.965 |
| G10C C85U | -1.64 |
| C11A U33G G69U U106A | -2.62 |
| C11G A29G C49G G93U | -3.07 |

| Variant | polymerase ribozyme fitness (log ratio) |
| --- | --- |
| C11A G60U A74U C88A | -2.8 |
| G10C C98U | -1.81 |
| C11G G36A | 0.396 |
| C11G C12A C64U U96C A108G | -2.32 |
| C11A G63U | -1.77 |
| G10U G17A C56A C89G G117A | -3.05 |
| G10A C72U G113A | -1.32 |
| G10U G71A A103U C114U | -4.96 |
| G10C C11G A103U | -3.76 |
| C11A C56A A100C | -3.86 |
| G10A G61U A100C G135U | -1.17 |
| G10A G36C A50G U92G | -3.51 |
| C11A A121U | 0.371 |
| G10A C13G C22G A37C C72A A95U | -4.63 |
| G10A C15G G61U | -3.16 |
| G10A C114G G135A | -3.42 |
| G10C A37U C72A | -0.966 |
| G10C C70U A108U U112A U132C | -6.08 |
| C11A G77U U87G U106G G113C U125G | -4.71 |
| C11A G48U G69U A103C | -3.74 |
| G10U A100U | -1.18 |
| C11G C13G A50C G110C | -5.28 |
| G10C C56U G117C | -4.57 |
| G10U A83U | -0.308 |

| Variant | polymerase ribozyme fitness (log ratio) |
| --- | --- |
| C11G C20A A26U C85U A90U A121C | -4.44 |
| G10A C62A A91C C123U | -0.505 |
| C11A G48U A66U C72A U96G U112C | -2.05 |
| C11A G44U C56U | -2.23 |
| G10C G61A G93C | -1.11 |
| C11A G45A G60A G113C | -4.47 |
| G10U C94U C101A C104A | -3.21 |
| C11A G60C | -1.7 |
| G10U C53G U78A | -2.99 |
| C11G A68G U81A U106A G110A G113U A121G | -6.2 |
| G10A G57U A90G U126A | -1.18 |
| C11G C40U U87G C115U | -0.239 |
| G10U U55G A111C | -0.134 |
| G10A G120U G122A | 1.51 |
| C11A U116G | -4.36 |
| C11G A24G C40U A90G U131A | -2.57 |
| G10A C40A C72A A111C | -1.19 |
| C11G G23U G39C G45C G47C C89U C99G C115U | -7.14 |
| G10C G113C | -2.27 |
| C11G G17U A50U G71U C85A U87C | -5.37 |
| G10U A27C U112C | -1.73 |
| G10U U21A G60U G71A C89U C101U C124A | -6.77 |
| C11G C12A G69C C104A | -2.8 |
| G10U G19C A37U C72A C73U C123G U130C | -2.79 |

| Variant | polymerase ribozyme fitness (log ratio) |
| --- | --- |
| G10U C12A G71U U78A C80U C114G | -3.23 |
| G10C A27G C40U A121U | 0.906 |
| G10U U55C C123A | 0.286 |
| C11G C12G G48U G58U G60U C85A U106G | -4.78 |
| C11G A16U G58C A83C C89U U131A | -3.15 |
| G10A C97U | -0.852 |
| C11A A75U C79U C85A | -2.71 |
| G10U G57A G60A | -0.571 |
| C11A G69U C94U U130A | -1.6 |
| C11G A18U C72A A91U G110C | -5.23 |
| G10C G47U C101A A103U | -6.38 |
| C11G C13U C56U G69A G77C C101A | -5.25 |
| C11G A27C G48A C94G | -4.21 |
| G10C A18U | -3.34 |
| G10C C49G C64U A83G U125A | -3.57 |
| G10U U78C | -0.395 |
| G10C A26C A37U U78C A83U U87A C115G G127A | -6.88 |
| G10C C12A G51A G127C | -4.99 |
| G10C A43U U129C | -3.15 |
| G10U G52A C79G A119U | -0.109 |
| C11G C31A A41U C70G G113U | -5.92 |
| C11G C12U G42C G69C | -5.66 |
| G10A C73G | -0.355 |
| G10A C28G U106A G127U G128C | -3.76 |

| Variant | polymerase ribozyme fitness (log ratio) |
| --- | --- |
| C11G A50U G93U G113U | -4.55 |
| C11G C80U | -0.0495 |
| C11A G48A A50U C70U C97G G122A | -5.3 |
| C11A A18U G127A | -4.94 |
| G10A C34A | -2.87 |
| C11G C85G | -1.55 |
| G10U U78C C88G | -1.13 |
| C11G C56G C79U | -0.259 |
| G10U G36A G61C | -3.3 |
| C11G C53U C80U C88A U112C | 0.738 |
| C11G A66G C114U C124G | -3.83 |
| G10C C11U C13A A37U C70U | -0.31 |
| C11G G47U | -0.345 |
| C11G G47A | -0.824 |
| C11G A16G G60A C64U G110A A118G | -6.79 |
| C11A G71U | -1.08 |
| C11A G71A | -1.67 |
| C11G C12A G51A C80A U116G | -5.92 |
| G10A C13U U30G A46C C72U C123G | -6.25 |
| C11G A27C G113C G127C | -5.64 |
| C11G C115U | -1.01 |
| C11G G42C C49U G117C C124G | -4.14 |
| G10U G36A C64G A83G C94G G110U | -7.24 |
